Consider 32 molecules from publication PMC10786891, “Massively parallel profiling of RNA-targeting CRISPR-Cas13d”.

The labels stand for the following.
T1: EsCas13d, nuclease-dead (Eubacterium siraeum, UniProt B0MS50, R295A;H300A;R849A;H854A)
T1 sequence: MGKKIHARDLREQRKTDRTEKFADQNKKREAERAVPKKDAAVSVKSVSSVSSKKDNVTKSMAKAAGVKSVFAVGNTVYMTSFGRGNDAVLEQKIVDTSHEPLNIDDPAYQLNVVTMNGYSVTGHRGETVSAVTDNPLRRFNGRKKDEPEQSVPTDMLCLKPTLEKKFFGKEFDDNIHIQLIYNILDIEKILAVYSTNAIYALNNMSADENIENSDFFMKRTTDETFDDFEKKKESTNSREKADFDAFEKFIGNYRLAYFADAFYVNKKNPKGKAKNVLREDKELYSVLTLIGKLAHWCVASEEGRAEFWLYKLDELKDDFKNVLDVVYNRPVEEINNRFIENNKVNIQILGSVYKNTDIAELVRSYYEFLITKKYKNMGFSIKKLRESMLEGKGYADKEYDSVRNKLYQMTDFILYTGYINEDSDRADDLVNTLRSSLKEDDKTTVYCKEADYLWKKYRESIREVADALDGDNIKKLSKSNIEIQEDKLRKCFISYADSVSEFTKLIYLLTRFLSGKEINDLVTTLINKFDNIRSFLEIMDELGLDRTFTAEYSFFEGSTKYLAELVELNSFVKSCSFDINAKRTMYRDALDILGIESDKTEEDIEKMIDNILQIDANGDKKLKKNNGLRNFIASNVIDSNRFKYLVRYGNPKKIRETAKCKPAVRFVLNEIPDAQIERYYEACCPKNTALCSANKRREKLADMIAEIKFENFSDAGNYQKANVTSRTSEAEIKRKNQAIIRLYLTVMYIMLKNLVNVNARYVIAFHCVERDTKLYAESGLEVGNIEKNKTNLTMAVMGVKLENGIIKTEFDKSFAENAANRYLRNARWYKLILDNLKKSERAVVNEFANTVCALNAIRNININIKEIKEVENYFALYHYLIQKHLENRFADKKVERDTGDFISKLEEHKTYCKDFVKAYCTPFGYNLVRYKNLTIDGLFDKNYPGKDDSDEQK

B1: target 1 MT 5'PFS UCG 3'PFS AUC (mixed)
RNA 1: CACCCGUGCAAAAAUGCAGGGGUCUAAAACUGAGCGGAUAACCUCUCUAUGG
RNA 2: GGGAAUGGAUCCACAUCUACGAAUUCUCGCCAUAGAGAGGUUAUCCGCUCAAUCAGAUCGGAAGAGCACACGU
B2: target 1 MT 5'PFS ACC 3'PFS UAG (mixed)
RNA 1: B1 RNA 1
RNA 2: B1 RNA 2 with U27A, G29C, A52U, U53A, C54G
B3: target 1 MT 5'PFS UUG 3'PFS CUU (mixed)
RNA 1: B1 RNA 1
RNA 2: B1 RNA 2 with C28U, A52C, C54U
B4: target 1 MT 5'PFS GAC 3'PFS UAC (mixed)
RNA 1: B1 RNA 1
RNA 2: B1 RNA 2 with U27G, C28A, G29C, A52U, U53A
B5: target 1 MT 5'PFS UUA 3'PFS UAG (mixed)
RNA 1: B1 RNA 1
RNA 2: B1 RNA 2 with C28U, G29A, A52U, U53A, C54G
B6: target 1 MT 5'PFS AGG 3'PFS CAG (mixed)
RNA 1: B1 RNA 1
RNA 2: B1 RNA 2 with U27A, C28G, A52C, U53A, C54G
B7: target 1 MT 5'PFS AAA 3'PFS CAC (mixed)
RNA 1: B1 RNA 1
RNA 2: B1 RNA 2 with U27A, C28A, G29A, A52C, U53A
B8: target 1 G5U,G13C (mixed)
RNA 1: B1 RNA 1
RNA 2: B1 RNA 2 with U27G, C28U, G29A, G39C, G47U, A52C, U53C, C54G
B9: target 1 MT 5'PFS GGC 3'PFS CCG (mixed)
RNA 1: B1 RNA 1
RNA 2: B1 RNA 2 with U27G, C28G, G29C, A52C, U53C, C54G
B10: target 1 MT 5'PFS UUG 3'PFS CUG (mixed)
RNA 1: B1 RNA 1
RNA 2: B1 RNA 2 with C28U, A52C, C54G
B11: target 1 MT 5'PFS ACC 3'PFS UAC (mixed)
RNA 1: B1 RNA 1
RNA 2: B1 RNA 2 with U27A, G29C, A52U, U53A
B12: target 1 del4,del8 (mixed)
RNA 1: B1 RNA 1
RNA 2: GGGAAUGGAUCCACAUCUACGAAUUCGUACCAUAGAGAGGUUACCGUCACCGAGAUCGGAAGAGCACACGU
B13: target 1 MT 5'PFS CCA 3'PFS CGG (mixed)
RNA 1: B1 RNA 1
RNA 2: B1 RNA 2 with U27C, G29A, A52C, U53G, C54G
B14: target 1 MT 5'PFS AAC 3'PFS AAC (mixed)
RNA 1: B1 RNA 1
RNA 2: B1 RNA 2 with U27A, C28A, G29C, U53A
B15: target 1 MT 5'PFS GGC 3'PFS CCA (mixed)
RNA 1: B1 RNA 1
RNA 2: B1 RNA 2 with U27G, C28G, G29C, A52C, U53C, C54A
B16: target 1 insG 3' of 20,insA 3' of 10 (mixed)
RNA 1: B1 RNA 1
RNA 2: GGGAAUGGAUCCACAUCUACGAAUUCGUACCAGUAGAGAGGUUAAUCCGCUCACCGAGAUCGGAAGAGCACACGU
B17: target 1 MT 5'PFS GUU 3'PFS CGC (mixed)
RNA 1: B1 RNA 1
RNA 2: B1 RNA 2 with U27G, C28U, G29U, A52C, U53G
B18: target 1 MT 5'PFS GCA 3'PFS AGC (mixed)
RNA 1: B1 RNA 1
RNA 2: B1 RNA 2 with U27G, G29A, U53G
B19: target 1 MT 5'PFS GAC 3'PFS UAA (mixed)
RNA 1: B1 RNA 1
RNA 2: B1 RNA 2 with U27G, C28A, G29C, A52U, U53A, C54A
B20: target 1 C6U,U19C (mixed)
RNA 1: B1 RNA 1
RNA 2: B1 RNA 2 with U27G, C28U, G29A, U33C, C46U, A52C, U53C, C54G
B21: target 1 MT 5'PFS CAU 3'PFS CUA (mixed)
RNA 1: B1 RNA 1
RNA 2: B1 RNA 2 with U27C, C28A, G29U, A52C, C54A
B22: target 1 MT 5'PFS UUA 3'PFS UAC (mixed)
RNA 1: B1 RNA 1
RNA 2: B1 RNA 2 with C28U, G29A, A52U, U53A
B23: target 1 MT 5'PFS GUU 3'PFS CGU (mixed)
RNA 1: B1 RNA 1
RNA 2: B1 RNA 2 with U27G, C28U, G29U, A52C, U53G, C54U
B24: target 1 MT 5'PFS UAG 3'PFS GAG (mixed)
RNA 1: B1 RNA 1
RNA 2: B1 RNA 2 with C28A, A52G, U53A, C54G
B25: target 1 MT 5'PFS UCG 3'PFS AUU (mixed)
RNA 1: B1 RNA 1
RNA 2: B1 RNA 2 with C54U
B26: target 1 MT 5'PFS GAC 3'PFS UAG (mixed)
RNA 1: B1 RNA 1
RNA 2: B1 RNA 2 with U27G, C28A, G29C, A52U, U53A, C54G
B27: target 1 MT 5'PFS GUU 3'PFS CGA (mixed)
RNA 1: B1 RNA 1
RNA 2: B1 RNA 2 with U27G, C28U, G29U, A52C, U53G, C54A
B28: target 1 MT 5'PFS AAC 3'PFS AAG (mixed)
RNA 1: B1 RNA 1
RNA 2: B1 RNA 2 with U27A, C28A, G29C, U53A, C54G
B29: target 1 MT 5'PFS UUG 3'PFS CUA (mixed)
RNA 1: B1 RNA 1
RNA 2: B1 RNA 2 with C28U, A52C, C54A
B30: target 1 MT 5'PFS CAU 3'PFS CUC (mixed)
RNA 1: B1 RNA 1
RNA 2: B1 RNA 2 with U27C, C28A, G29U, A52C
B31: target 1 MT 5'PFS GAC 3'PFS UAU (mixed)
RNA 1: B1 RNA 1
RNA 2: B1 RNA 2 with U27G, C28A, G29C, A52U, U53A, C54U
B32: target 1 MT 5'PFS GUU 3'PFS CGG (mixed)
RNA 1: B1 RNA 1
RNA 2: B1 RNA 2 with U27G, C28U, G29U, A52C, U53G, C54G

Where a chain is given by its changes, count along the chain named. Numbers in names are those of the source.

The target of this series is T1, EsCas13d, nuclease-dead. In words: crRNA (strand 1, pre-loaded); Mg2+; 40 mM Tris-HCl pH 7.5, 150 mM NaCl, 6 mM MgCl2, 1 mM DTT, 0.1% Tween-20, 0.2 mg/ml BSA; 25 C; 10 min per concentration, then washed. As to conditions: tags: His6-TwinStrep-SUMO cleaved; N-terminal SNAP kept (SNAP-Surface 488); label: 3' end held by stalled T7 RNA polymerase.
As a reminder, the Kd is the constant that tells how readily two partners part at equilibrium. Read a high Kd as lower affinity. In turn, B1 gave a Kd of 42 ± 13 nM.
Under B2 stands about 14.5 nM.
In the case of B3 it was 14.4 ± 3.55 nM.
In the case of B4 it was 19 ± 8 nM; in that of B5, 27.5 ± 6 nM.
Molecule B6 came in with a Kd of about 41 nM.
In turn, B7 returned a Kd of 29.5 ± 11.5 nM.
The molecule B8 came in with a Kd of 39 ± 6 nM.
The molecule B9 yielded a Kd of 8.35 ± 1.4 nM.
Under B10 stands 23.5 ± 5.75 nM; under B11, 31 ± 14.5 nM; under B12, 12.1 ± 1 nM.
For B13, binding was characterised by a dissociation constant (Kd) of 5.05 ± 1.35 nM.
Under B14 stands 84.5 ± 41.5 nM; under B15, 31.5 ± 10.5 nM; under B16, 42 ± 8 nM.
B17 showed a Kd of 19.8 ± 4.5 nM.
In turn, B18 had a Kd of 28.5 ± 14 nM.
Under B19 stands 17.5 ± 4.5 nM; under B20, 29.7 ± 2 nM; under B21, about 110 nM.
In the case of B22 it was 35 ± 7 nM; in that of B23, 12.3 ± 1.8 nM; in that of B24, 91 ± 37 nM.
For B25, the Kd came to 32.5 ± 10.5 nM.
In the case of B26 it was 27.5 ± 11 nM; in that of B27, 19.7 ± 4.2 nM.
Take B28: the Kd came to 34.5 ± 15 nM.
As for B29, the dissociation constant (Kd) was 45.5 ± 18 nM.
With B30, the Kd is about 90 nM.
Under B31 stands 19 ± 6 nM; under B32, 67 ± 9 nM.
